Changes are numbered by the printed parent chain. Names and notes keep the numbering of the source.
T1: PUF4 RNA-binding domain (Saccharomyces cerevisiae, UniProt P25339 537-888)
T1 sequence: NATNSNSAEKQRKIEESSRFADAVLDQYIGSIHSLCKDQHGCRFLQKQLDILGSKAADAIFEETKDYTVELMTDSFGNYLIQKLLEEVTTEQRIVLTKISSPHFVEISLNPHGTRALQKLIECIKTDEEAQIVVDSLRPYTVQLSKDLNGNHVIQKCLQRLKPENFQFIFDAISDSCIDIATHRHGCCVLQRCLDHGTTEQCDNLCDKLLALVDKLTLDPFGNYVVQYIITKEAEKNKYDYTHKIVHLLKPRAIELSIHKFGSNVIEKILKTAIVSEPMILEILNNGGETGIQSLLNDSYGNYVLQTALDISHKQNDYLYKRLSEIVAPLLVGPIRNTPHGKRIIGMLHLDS

B1: Id_ii_S4_P3E.4_K3.3_C3.2_[C-2T]_[T-1C]_H3.3_A3.1_F3.1_T3.2_[A10C] (ssRNA)
RNA: UUUGACAACUGAUCGUUCUUUCUUCACACUAUAUCUUCUUUCUCGAUCAGUUGUCUUU
B2: Id_ii_S4_P3E.4_K3.3_C3.2_[T-1G]_H3.3_A3.1_F3.1_T3.2_[T9C]_[A10T] (ssRNA)
RNA: B1 RNA with U24C, C25G, U34C, C35U
B3: Id_ii_S4_P3E.4_K3.3_C3.2_[C-2T]_[T-1C]_H3.3_A3.1_F3.1_T3.2_[A10T] (ssRNA)
RNA: B1 RNA with C35U
B4: Id_ii_S4_P3E.4_K3.3_C3.2_[C-2A]_[T-1C]_H3.3_A3.1_F3.1_T3.2_[T9A]_[A10C] (ssRNA)
RNA: B1 RNA with U24A, U34A
B5: Id_ii_S4_P3E.4_K3.3_C3.2_[T-1G]_H3.3_A3.1_F3.1_T3.2_[T9A] (ssRNA)
RNA: B1 RNA with U24C, C25G, U34A, C35A
B6: Id_ii_S4_P3E.4_K3.3_C3.2_[T-1G]_H3.3_A3.1_F3.1_T3.2_[T9C] (ssRNA)
RNA: B1 RNA with U24C, C25G, U34C, C35A
B7: Id_ii_S4_P3E.4_K3.3_C3.2_[C-2T]_[T-1A]_H3.3_A3.1_F3.1_T3.2_[A10C] (ssRNA)
RNA: B1 RNA with C25A
B8: Id_ii_S4_P3E.4_K3.3_C3.2_[C-2A]_[T-1A]_H3.3_A3.1_F3.1_T3.2_[A10C] (ssRNA)
RNA: B1 RNA with U24A, C25A
B9: Id_ii_S4_P3E.4_K3.3_C3.2_[C-2A]_[T-1A]_H3.3_A3.1_F3.1_T3.2_[T9C] (ssRNA)
RNA: B1 RNA with U24A, C25A, U34C, C35A
B10: Id_ii_S4_P3E.4_K3.3_C3.2_[C-2T]_H3.3_A3.1_F3.1_T3.2_[T9G]_[A10C] (ssRNA)
RNA: B1 RNA with C25U, U34G
B11: Id_ii_S4_P3E.4_K3.3_C3.2_[C-2A]_[T-1C]_H3.3_A3.1_F3.1_T3.2_[A10T] (ssRNA)
RNA: B1 RNA with U24A, C35U
B12: Id_ii_S4_P3E.4_K3.3_C3.2_[T-1A]_H3.3_A3.1_F3.1_T3.2 (ssRNA)
RNA: B1 RNA with U24C, C25A, C35A
B13: Id_ii_S4_P3E.4_K3.3_C3.2_[C-2A]_[T-1C]_H3.3_A3.1_F3.1_T3.2_[T9G]_[A10C] (ssRNA)
RNA: B1 RNA with U24A, U34G
B14: Id_ii_S4_P3E.4_K3.3_C3.2_[C-2T]_[T-1A]_H3.3_A3.1_F3.1_T3.2_[T9A]_[A10T] (ssRNA)
RNA: B1 RNA with C25A, U34A, C35U
B15: Id_ii_S4_P3E.4_K3.3_C3.2_[C-2T]_[T-1A]_H3.3_A3.1_F3.1_T3.2 (ssRNA)
RNA: B1 RNA with C25A, C35A
B16: Id_ii_S4_P3E.4_K3.3_C3.2_[C-2A]_H3.3_A3.1_F3.1_T3.2_[A10T] (ssRNA)
RNA: B1 RNA with U24A, C25U, C35U
B17: Id_ii_S4_P3E.4_K3.3_C3.2_[T-1C]_H3.3_A3.1_F3.1_T3.2_[A10T] (ssRNA)
RNA: B1 RNA with U24C, C35U
B18: Id_ii_S4_P3E.4_K3.3_C3.2_H3.3_A3.1_F3.1_T3.2_[T9C]_[A10T] (ssRNA)
RNA: B1 RNA with U24C, C25U, U34C, C35U
B19: Id_ii_S4_P3E.4_K3.3_C3.2_H3.3_A3.1_F3.1_T3.2_[T9C] (ssRNA)
RNA: B1 RNA with U24C, C25U, U34C, C35A
B20: Id_ii_S4_P3E.4_K3.3_C3.2_[C-2T]_H3.3_A3.1_F3.1_T3.2_[T9A]_[A10C] (ssRNA)
RNA: B1 RNA with C25U, U34A
B21: Id_ii_S4_P3E.4_K3.3_C3.2_H3.3_A3.1_F3.1_T3.2_[A10C] (ssRNA)
RNA: B1 RNA with U24C, C25U
B22: Id_ii_S4_P3E.4_K3.3_C3.2_[C-2T]_H3.3_A3.1_F3.1_T3.2_[A10T] (ssRNA)
RNA: B1 RNA with C25U, C35U
B23: Id_ii_S4_P3E.4_K3.3_C3.2_[C-2T]_H3.3_A3.1_F3.1_T3.2 (ssRNA)
RNA: B1 RNA with C25U, C35A
B24: Id_ii_S4_P3E.4_K3.3_C3.2_[C-2T]_[T-1A]_H3.3_A3.1_F3.1_T3.2_[A10T] (ssRNA)
RNA: B1 RNA with C25A, C35U
B25: Id_ii_S4_P3E.4_K3.3_C3.2_[C-2A]_H3.3_A3.1_F3.1_T3.2_[T9A]_[A10C] (ssRNA)
RNA: B1 RNA with U24A, C25U, U34A
B26: Id_ii_S4_P3E.4_K3.3_C3.2_[C-2T]_H3.3_A3.1_F3.1_T3.2_[T9A] (ssRNA)
RNA: B1 RNA with C25U, U34A, C35A
B27: Id_ii_S4_P3E.4_K3.3_C3.2_[T-1C]_H3.3_A3.1_F3.1_T3.2_[T9G]_[A10C] (ssRNA)
RNA: B1 RNA with U24C, U34G
B28: Id_ii_S4_P3E.4_K3.3_C3.2_[T-1A]_H3.3_A3.1_F3.1_T3.2_[T9C]_[A10C] (ssRNA)
RNA: B1 RNA with U24C, C25A, U34C
B29: Id_ii_S4_P3E.4_K3.3_C3.2_[C-2A]_H3.3_A3.1_F3.1_T3.2_[A10C] (ssRNA)
RNA: B1 RNA with U24A, C25U

Molecular target: T1, PUF4 RNA-binding domain
Assay: Mg; RNA-MaP; 20 mM Na-HEPES pH 7.4, 30 mM KOAc, 0.75 mM MgCl2, 0.1% Tween-20, 5% glycerol, 0.1 mg/mL BSA, 2 mM DTT; 25 C; 0.0125-409.6 nM protein
Settings: tags: N-His6-TEV cleaved; C-SNAP kept, Cy3B-labelled; label: tethered on chip by stalled RNA polymerase

Row | Binder | Kd [µM]
1 | B1 | > 2.3
2 | B2 | > 2.3
3 | B3 | 1.43
4 | B4 | 1.37
5 | B5 | > 2.3
6 | B6 | 0.637
7 | B7 | 1.54
8 | B8 | 1.02
9 | B9 | 0.496
10 | B10 | 1.23
11 | B11 | 1.14
12 | B12 | 0.291
13 | B13 | > 2.3
14 | B14 | > 2.3
15 | B15 | 0.264
16 | B16 | 0.0493
17 | B17 | 1.05
18 | B18 | 1.38
19 | B19 | 0.597
20 | B20 | 0.935
21 | B21 | 0.926
22 | B22 | 0.946
23 | B23 | 0.345
24 | B24 | 1.31
25 | B25 | 0.0264
26 | B26 | 2.3
27 | B27 | > 2.3
28 | B28 | 2.16
29 | B29 | 0.0418
